Experimental data as given in patent US20080004209.

Columns and labels:
[1] = test system: alkylated and reduced resistin
Chain of alkylated and reduced resistin (Q9HD89 19-108): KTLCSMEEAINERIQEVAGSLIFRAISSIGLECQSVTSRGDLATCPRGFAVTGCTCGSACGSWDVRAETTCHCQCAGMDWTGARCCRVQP

Chain of trypsin (P00761 9-231): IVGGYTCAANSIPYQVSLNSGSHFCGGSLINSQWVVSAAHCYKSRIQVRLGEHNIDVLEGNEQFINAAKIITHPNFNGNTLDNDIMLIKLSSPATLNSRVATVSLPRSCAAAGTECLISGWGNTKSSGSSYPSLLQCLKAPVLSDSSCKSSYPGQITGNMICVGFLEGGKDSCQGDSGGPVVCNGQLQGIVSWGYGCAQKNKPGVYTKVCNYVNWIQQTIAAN
Chain of native resistin (Q9HD89 19-108): as the sequence (Q9HD89 19-108) above

Substance | cleavage of resistin in vitro (24 hr digestion, SDS-PAGE) [1] | proteolytic cleavage (preliminary protease digestion experiments, data not shown) (native resistin)
trypsin | resistin was completely degraded by the non-specific protease, trypsin | native resistin was refractory to proteolytic cleavage by trypsin, suggestive of a highly folded state (data not shown)
HIV-1 protease | incubation with HIV-1 protease, cathepsin D and cathepsin E resulted in the appearance of a ca. 7 kDa resistin cleavage product | –
cathepsin D | incubation with HIV-1 protease, cathepsin D and cathepsin E resulted in the appearance of a ca. 7 kDa resistin cleavage product | –
cathepsin E | incubation with HIV-1 protease, cathepsin D and cathepsin E resulted in the appearance of a ca. 7 kDa resistin cleavage product | –
